According to patent publication WO1995025167A1:

How the values were obtained:
[1] = target: EGFR on EGFR-bearing tumor cells (human) (UniProt P00533); test: flow cytometry, crude bacterial supernatant on HT29 cells, positive control
[2] = target: EGFR on EGFR-bearing tumor cells (human) (UniProt P00533); test: flow cytometry, crude bacterial supernatant on MDA MB 231 cells, positive control
[3] = target: EGFR on EGFR-bearing tumor cells (human) (UniProt P00533); test: flow cytometry, crude bacterial supernatant on A431 cells, positive control

scFv derived from MAb 425
mean fluorescence (cytometric analysis) (arbitrary fluorescence units) [1]: 2.5 | mean fluorescence (cytometric analysis) (arbitrary fluorescence units) [2]: 21.3 | mean fluorescence (cytometric analysis) (arbitrary fluorescence units) [3]: 85.5
